# IntAct's records for PubMed 19037259
# B1: Vacuole morphology and inheritance protein 14 (Saccharomyces cerevisiae), Q06708 (parent)
# chain: MEKSIAKGLSDKLYEKRKAAALELEKLVKQCVLEGDYDRIDKIIDELCRDYAYALHQPMARNAGLMGLAATAIALGINDVGRYLRNILPPVLACFGDQNDQVRFYACESLYNIAKIAKGEILVYFNEIFDVLCKISADTENSVRGAAELLDRLIKDIVAERASNYISIVNNGSHGLLPAIKTDPISGDVYQEEYEQDNQLAFSLPKFIPLLTERIYAINPDTRVFLVDWLKVLLNTPGLELISYLPSFLGGLFTFLGDSHKDVRTVTHTLMDSLLHEVDRISKLQTEIKMKRLERLKMLEDKYNNSSTPTKKADGALIAEKKKTLMTALGGLSKPLSMETDDTKLSNTNETDDERHLTSQEQLLDSEATSQEPLRDGEEYIPGQDINLNFPEVITVLVNNLASSEAEIQLIALHWIQVILSISPNVFIPFLSKILSVLLKLLSDSDPHITEIAQLVNGQLLSLCSSYVGKETDGKIAYGPIVNSLTLQFFDSRIDAKIACLDWLILIYHKAPNQILKHNDSMFLTLLKSLSNRDSVLIEKALSLLQSLCSDSNDNYLRQFLQDLLTLFKRDTKLVKTRANFIMRQISSRLSPERVYKVISSILDNYNDTTFVKMMIQILSTNLITSPEMSSLRNKLRTCEDGMFFNSLFKSWCPNPVSVISLCFVAENYELAYTVLQTYANYELKLNDLVQLDILIQLFESPVFTRMRLQLLEQQKHPFLHKCLFGILMIIPQSKAFETLNRRLNSLNIWTSQSYVMNNYIRQRENSNFCDSNSDISQRSVSQSKLHFQELINHFKAVSEEDEYSSDMIRLDHGANNKSLLLGSFLDGIDEDKQEIVTPISPMNEAINEEMESPNDNSSVILKDSGSLPFNRNVSDKLKK
# partner: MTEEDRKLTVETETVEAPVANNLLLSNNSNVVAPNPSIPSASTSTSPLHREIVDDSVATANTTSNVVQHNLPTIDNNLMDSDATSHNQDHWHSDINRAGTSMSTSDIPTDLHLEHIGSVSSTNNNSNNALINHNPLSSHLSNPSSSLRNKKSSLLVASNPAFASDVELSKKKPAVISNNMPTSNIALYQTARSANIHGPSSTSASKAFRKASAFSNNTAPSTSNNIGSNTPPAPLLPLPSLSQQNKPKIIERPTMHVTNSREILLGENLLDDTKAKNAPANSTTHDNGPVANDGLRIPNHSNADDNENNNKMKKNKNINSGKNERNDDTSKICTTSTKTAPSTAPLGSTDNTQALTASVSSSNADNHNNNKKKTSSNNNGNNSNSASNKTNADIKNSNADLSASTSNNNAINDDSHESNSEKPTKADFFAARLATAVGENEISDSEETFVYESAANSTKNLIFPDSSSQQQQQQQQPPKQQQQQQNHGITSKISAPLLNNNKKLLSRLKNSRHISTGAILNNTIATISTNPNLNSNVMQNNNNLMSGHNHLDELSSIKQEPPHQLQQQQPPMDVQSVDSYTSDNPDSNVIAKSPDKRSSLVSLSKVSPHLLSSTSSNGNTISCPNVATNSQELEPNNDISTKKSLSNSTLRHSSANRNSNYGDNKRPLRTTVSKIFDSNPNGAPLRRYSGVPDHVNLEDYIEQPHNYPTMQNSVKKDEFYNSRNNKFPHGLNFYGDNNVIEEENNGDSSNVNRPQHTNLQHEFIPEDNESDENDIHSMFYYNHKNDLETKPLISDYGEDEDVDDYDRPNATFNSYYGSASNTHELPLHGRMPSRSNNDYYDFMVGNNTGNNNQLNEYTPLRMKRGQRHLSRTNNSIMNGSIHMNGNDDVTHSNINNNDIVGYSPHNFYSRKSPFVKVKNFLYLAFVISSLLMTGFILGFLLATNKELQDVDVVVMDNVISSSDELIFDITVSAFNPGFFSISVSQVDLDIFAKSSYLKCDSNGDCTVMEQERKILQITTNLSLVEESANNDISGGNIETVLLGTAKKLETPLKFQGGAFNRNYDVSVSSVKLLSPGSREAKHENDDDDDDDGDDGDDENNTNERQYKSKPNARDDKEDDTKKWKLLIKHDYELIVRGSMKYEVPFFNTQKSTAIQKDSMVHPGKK
# B2: Vacuole morphology and inheritance protein 14 (Saccharomyces cerevisiae), Q06708 (parent)
# chain: B1 chain
# partner: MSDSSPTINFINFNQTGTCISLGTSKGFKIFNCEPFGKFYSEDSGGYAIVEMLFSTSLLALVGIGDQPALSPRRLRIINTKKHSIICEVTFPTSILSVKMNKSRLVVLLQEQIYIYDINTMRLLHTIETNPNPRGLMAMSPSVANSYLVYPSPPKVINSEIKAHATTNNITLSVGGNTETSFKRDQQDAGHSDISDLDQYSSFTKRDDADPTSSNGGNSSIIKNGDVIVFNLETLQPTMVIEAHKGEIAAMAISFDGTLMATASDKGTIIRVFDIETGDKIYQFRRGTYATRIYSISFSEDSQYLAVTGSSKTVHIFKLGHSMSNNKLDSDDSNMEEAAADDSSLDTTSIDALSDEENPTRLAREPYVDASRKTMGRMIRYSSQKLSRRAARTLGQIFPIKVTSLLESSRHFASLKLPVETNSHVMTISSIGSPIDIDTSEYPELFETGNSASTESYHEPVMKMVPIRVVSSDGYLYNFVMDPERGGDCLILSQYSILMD
# B3: Protein VAC14 homolog (Homo sapiens), Q08AM6 (parent)
# chain: MNPEKDFAPLTPNIVRALNDKLYEKRKVAALEIEKLVREFVAQNNTVQIKHVIQTLSQEFALSQHPHSRKGGLIGLAACSIALGKDSGLYLKELIEPVLTCFNDADSRLRYYACEALYNIVKVARGAVLPHFNVLFDGLSKLAADPDPNVKSGSELLDRLLKDIVTESNKFDLVSFIPLLRERIYSNNQYARQFIISWILVLESVPDINLLDYLPEILDGLFQILGDNGKEIRKMCEVVLGEFLKEIKKNPSSVKFAEMANILVIHCQTTDDLIQLTAMCWMREFIQLAGRVMLPYSSGILTAVLPCLAYDDRKKSIKEVANVCNQSLMKLVTPEDDELDELRPGQRQAEPTPDDALPKQEGTASGGPDGSCDSSFSSGISVFTAASTERAPVTLHLDGIVQVLNCHLSDTAIGMMTRIAVLKWLYHLYIKTPRKMFRHTDSLFPILLQTLSDESDEVILKDLEVLAEIASSPAGQTDDPGPLDGPDLQASHSELQVPTPGRAGLLNTSGTKGLECSPSTPTMNSYFYKFMINLLKRFSSERKLLEVRGPFIIRQLCLLLNAENIFHSMADILLREEDLKFASTMVHALNTILLTSTELFQLRNQLKDLKTLESQNLFCCLYRSWCHNPVTTVSLCFLTQNYRHAYDLIQKFGDLEVTVDFLAEVDKLVQLIECPIFTYLRLQLLDVKNNPYLIKALYGLLMLLPQSSAFQLLSHRLQCVPNPELLQTEDSLKAAPKSQKADSPSIDYAELLQHFEKVQNKHLEVRHQRSGRGDHLDRRVVL
# B4: Vacuole morphology and inheritance protein 14 (Saccharomyces cerevisiae), Q06708 (parent)
# chain: B1 chain
# B5: Protein VAC14 homolog (Homo sapiens), Q08AM6 (parent)
# chain: B3 chain
# partner: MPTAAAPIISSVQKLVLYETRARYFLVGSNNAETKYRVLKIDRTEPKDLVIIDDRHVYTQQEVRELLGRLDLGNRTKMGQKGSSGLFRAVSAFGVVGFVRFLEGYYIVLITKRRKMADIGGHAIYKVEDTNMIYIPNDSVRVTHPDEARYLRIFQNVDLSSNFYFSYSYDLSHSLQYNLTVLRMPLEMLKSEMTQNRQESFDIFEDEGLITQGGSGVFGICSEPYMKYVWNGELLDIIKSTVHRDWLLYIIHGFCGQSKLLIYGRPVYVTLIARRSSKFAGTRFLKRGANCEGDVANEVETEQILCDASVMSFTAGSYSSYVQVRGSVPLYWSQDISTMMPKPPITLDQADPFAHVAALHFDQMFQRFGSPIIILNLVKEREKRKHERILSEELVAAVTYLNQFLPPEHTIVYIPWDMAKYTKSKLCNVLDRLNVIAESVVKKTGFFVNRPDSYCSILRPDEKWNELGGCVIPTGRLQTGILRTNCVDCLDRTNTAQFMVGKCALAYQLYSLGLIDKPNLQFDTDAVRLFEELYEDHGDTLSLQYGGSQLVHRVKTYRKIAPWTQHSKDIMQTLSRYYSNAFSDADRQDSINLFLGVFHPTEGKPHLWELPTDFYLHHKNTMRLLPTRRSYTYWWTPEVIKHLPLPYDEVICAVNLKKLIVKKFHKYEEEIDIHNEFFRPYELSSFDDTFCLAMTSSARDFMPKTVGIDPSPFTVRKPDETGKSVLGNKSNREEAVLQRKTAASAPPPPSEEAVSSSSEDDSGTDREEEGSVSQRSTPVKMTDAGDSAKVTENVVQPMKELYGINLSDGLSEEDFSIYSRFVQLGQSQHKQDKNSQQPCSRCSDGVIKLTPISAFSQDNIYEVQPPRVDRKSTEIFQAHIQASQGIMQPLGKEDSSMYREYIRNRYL
# Variants of: B1
# Details: with vac7_yeast VAC7, P53950
row,effect of a mutation on the interaction,Variant
1,disrupting interaction,L329I
2,disrupting interaction,Q101R
3,disrupting interaction,H56Y
4,disrupting interaction,R61K

# Variants of: B1
# Details: with vac7_yeast VAC7, P53950
# Remark: another data set of the same source
row,effect of a mutation on the interaction,Variant
1,disrupting interaction,L149R

# Variants of: B2
# Details: with atg18_yeast ATG18, P43601
row,effect of a mutation on the interaction,Variant
1,disrupting interaction,R61K
2,disrupting interaction,Q101R
3,disrupting interaction,H56Y
4,disrupting interaction,L329I

# Variants of: B2
# Details: with atg18_yeast ATG18, P43601
# Remark: another data set of the same source
row,effect of a mutation on the interaction,Variant
1,disrupting interaction,L149R

# Variants of: B3
# Details: with fyv1_human PIKFYVE
row,effect of a mutation on the interaction,Variant
1,disrupting interaction,L156R

# Variants of: B4
# Details: with fab1_yeast FAB1, P34756
# Chain of fab1_yeast FAB1, P34756 (P34756 whole entry): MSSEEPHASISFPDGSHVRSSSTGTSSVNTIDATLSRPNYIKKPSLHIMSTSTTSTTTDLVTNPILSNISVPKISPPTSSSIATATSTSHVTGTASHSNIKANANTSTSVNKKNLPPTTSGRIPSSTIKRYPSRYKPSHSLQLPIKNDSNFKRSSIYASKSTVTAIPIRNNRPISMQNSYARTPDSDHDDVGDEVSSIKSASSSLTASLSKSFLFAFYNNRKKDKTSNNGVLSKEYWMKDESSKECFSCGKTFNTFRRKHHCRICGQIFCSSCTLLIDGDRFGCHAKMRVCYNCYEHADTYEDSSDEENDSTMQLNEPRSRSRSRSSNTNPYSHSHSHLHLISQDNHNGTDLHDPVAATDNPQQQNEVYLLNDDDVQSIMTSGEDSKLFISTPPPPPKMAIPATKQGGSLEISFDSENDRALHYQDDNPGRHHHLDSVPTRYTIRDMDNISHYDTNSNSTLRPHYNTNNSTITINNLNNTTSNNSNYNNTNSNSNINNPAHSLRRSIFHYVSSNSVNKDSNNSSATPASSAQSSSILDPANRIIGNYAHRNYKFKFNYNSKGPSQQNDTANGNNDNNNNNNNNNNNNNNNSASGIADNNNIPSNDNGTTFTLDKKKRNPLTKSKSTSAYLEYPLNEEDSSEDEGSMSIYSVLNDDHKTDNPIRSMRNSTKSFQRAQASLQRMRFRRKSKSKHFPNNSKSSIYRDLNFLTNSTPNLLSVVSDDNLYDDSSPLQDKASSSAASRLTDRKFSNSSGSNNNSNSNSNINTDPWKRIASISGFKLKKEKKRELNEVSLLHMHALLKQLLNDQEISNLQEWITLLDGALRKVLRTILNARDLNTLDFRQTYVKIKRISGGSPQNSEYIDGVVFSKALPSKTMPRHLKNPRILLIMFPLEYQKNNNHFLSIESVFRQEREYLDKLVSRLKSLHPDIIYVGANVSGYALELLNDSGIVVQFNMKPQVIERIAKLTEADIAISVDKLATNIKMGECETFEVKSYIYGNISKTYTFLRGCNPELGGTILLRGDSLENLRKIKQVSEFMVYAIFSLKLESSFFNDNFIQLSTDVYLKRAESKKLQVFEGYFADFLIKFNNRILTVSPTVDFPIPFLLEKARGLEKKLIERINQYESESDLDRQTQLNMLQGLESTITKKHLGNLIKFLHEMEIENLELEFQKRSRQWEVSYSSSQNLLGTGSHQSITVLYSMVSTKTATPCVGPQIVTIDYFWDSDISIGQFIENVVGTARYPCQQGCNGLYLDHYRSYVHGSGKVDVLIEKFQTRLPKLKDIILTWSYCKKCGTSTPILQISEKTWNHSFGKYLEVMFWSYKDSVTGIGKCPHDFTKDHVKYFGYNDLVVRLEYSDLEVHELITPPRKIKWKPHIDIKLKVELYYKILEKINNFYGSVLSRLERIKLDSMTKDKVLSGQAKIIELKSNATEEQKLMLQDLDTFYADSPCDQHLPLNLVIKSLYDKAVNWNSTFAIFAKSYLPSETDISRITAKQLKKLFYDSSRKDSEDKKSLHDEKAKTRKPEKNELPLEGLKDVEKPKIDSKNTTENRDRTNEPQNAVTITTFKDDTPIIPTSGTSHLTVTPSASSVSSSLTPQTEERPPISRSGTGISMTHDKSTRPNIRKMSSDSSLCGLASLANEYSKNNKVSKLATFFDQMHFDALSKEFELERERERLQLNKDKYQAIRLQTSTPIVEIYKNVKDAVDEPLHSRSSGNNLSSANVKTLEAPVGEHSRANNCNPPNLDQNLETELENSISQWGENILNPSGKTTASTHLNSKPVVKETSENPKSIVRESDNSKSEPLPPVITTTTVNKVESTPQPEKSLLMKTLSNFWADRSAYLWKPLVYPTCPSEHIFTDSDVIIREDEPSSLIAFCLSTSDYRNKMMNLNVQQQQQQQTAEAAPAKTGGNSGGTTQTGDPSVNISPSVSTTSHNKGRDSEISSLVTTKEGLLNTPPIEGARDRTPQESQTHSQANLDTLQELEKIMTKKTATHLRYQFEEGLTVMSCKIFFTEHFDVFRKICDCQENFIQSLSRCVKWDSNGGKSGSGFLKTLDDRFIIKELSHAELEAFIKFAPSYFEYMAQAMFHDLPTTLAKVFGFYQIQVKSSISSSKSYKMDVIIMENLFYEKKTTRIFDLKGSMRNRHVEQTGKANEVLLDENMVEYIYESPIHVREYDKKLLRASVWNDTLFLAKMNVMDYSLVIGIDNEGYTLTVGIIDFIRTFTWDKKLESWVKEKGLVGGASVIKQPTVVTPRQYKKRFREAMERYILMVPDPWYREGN
row,effect of a mutation on the interaction,Variant
1,disrupting interaction,L149R

# Variants of: B5
# Details: with fig4_human FIG4, Q92562
row,effect of a mutation on the interaction,Variant
1,disrupting interaction,L156R
